Data from US20100249064A1, “METHODS AND COMPOSITIONS FOR TREATING DISEASES AND CONDITIONS INVOLVING HIGHER MOLECULAR WEIGHT HYALURONAN” (University of Chicago, priority 2007, published 2010).

Experiments:
Tiam1 = target: T1, Tiam1 (human, UniProt Q13009 2-1591, limits assumed); assay: immunoprecipitation of dynamin 2 from CEM fractions of human EC, immunoblot with anti-Tiam1
T1 construct: Endogenous protein in CEM fractions; also called T-lymphoma invasion and metastasis gene 1
Description: Immunoprecipitation and Immunoblotting—Cellular materials from treated or untreated HPMVEC were incubated with IP buffer (50 mM HEPES (pH 7.5), 150 mM NaCl, 20 mM MgCl₂, 1% Nonidet P-40 (NP-40), 0.4 mM Na₃VO₄, 40 mM NaF, 50 μM okadaic acid, 0.2 mM phenylmethylsulfonyl fluoride, 1:250 dilution of Calbiochem protease inhibitor mixture 3). Following immunoprecipitation with either anti-CD44 or anti-dynamin 2 IgG, the samples were subjected to SDS-PAGE in 4-15% polyacrylamide gels, transferred onto Immobilon™ membranes, and developed with specific primary and secondary antibodies. Enhanced chemiluminescence (Amersham Biosciences) was used to visualize immunoreactive bands. In some instances, standardized average grey values (S.A.G.V., processed from ImageQuant™ software (Amersham Biosciences)) were obtained for immunoreactive bands for quantification.
Role of Tiam1, cortactin and dynamin 2 in HGF/c-Met-mediated human EC barrier enhancement. Since CD44 appears to regulate HGF-induced EC barrier enhancement (FIG. 12), whether Tiam1, cortactin and/or dynamin 2 were involved in HGF-induced increases in EC barrier integrity was examined. […] Silencing CD44 (siRNA) expression attenuated the HGF-induced recruitment of these molecules to CEM (FIG. 13-B); silencing either Tiam1 or dynamin 2 expression abolished cortactin localization to CEM (FIG. 14-A and -B). […]

[1] = target: T2, HABP2, murine (mouse lung) (mouse, UniProt Q8K0D2 24-558, limits assumed); assay: anti-HABP2 immunoprecipitation of mouse lung homogenates, non-reducing SDS-PAGE, immunoblot
T2 construct: Immunoprecipitated with anti-HABP2 antibody from mouse lung homogenates; also called murine HABP2
Description: FIG. 24 Analysis of HABP2 and C1INH expression and complex formation in murine lungs with or without LPS treatment and effective silencing of HABP2 expression in murine lungs. Panel A—Male B6129N2 mice (8-10 weeks) were anesthetized with intraperitoneal ketamine (150 mg/kg) and acetylpromazine (15 mg/kg) before exposure of the right internal jugular vein via neck incision. LPS (2.5 mg/kg) or water (control) were instilled […]. The animals were allowed to recover for 24 hours after LPS before lung extraction. Extracted lungs were homogenized, N=6 samples per condition were pooled, run on SDS-PAGE and immunoblotted with anti-HABP2 (1), anti-C1INH (2) or anti-actin (3) antibody. Panel B—Homogenized lung samples as described in Panel A were immunoprecipitated with anti-HABP2 antibody, run on non-reducing SDS-PAGE and immunoblotted with either anti-HABP2 or anti-C1INH antibody. The upper arrow indicates an SDS-stable complex between HABP2 and C1INH. The lower arrow indicates the free (active) faun of HABP2. Panel C—Male B6129N2 mice (8-10 weeks) were anesthetized with intraperitoneal ketamine (150 mg/kg) and acetylpromazine (15 mg/kg) before exposure of the right internal jugular vein via neck incision. 10 mg/kg in vivo stable scramble siRNA (control) or HABP2 siRNA (Dharmacon) were instilled intravenously through the internal jugular vein. […]

Human pulmonary EC = assay: TER, HABP2/C1INH regulation of EC barrier function (Examples 3 and 6); assay type: cell-based; conditions: purified C1INH; 1.0 μg/ml LPS, 100 nM HA, 10 μg/ml HABP2
Description: Measurement of transendothelial monolayer electrical resistance (TER). EC were grown to confluence in polycarbonate wells containing evaporated gold microelectrodes, and TER measurements performed using an electrical cell-substrate impedance sensing system obtained from Applied Biophysics (Troy, N.Y.) as previously described in detail (Garcia et al. 2001). TER values from each microelectrode were pooled at discrete time points and plotted versus time as the mean±S.E.
Determination of EC barrier function. Human pulmonary endothelial cells were grown to confluence in polycarbonate wells containing evaporated gold microelectrodes (surface area, 10-3 cm^2) in series with a large gold counter electrode (1 cm^2) connected to a phase-sensitive lock-in amplifier as described previously. Measurements of transendothelial electrical resistance (TER) were performed using an electrical cell-substrate impedance sensing system (ECIS) (Applied BioPhysics Inc.). Briefly, current was applied across the electrodes by a 4,000-Hz AC voltage source with amplitude of 1 V in series with a 1 MS/resistance to approximate a constant current source (˜1 μA). The in-phase and out-of-phase voltages between the electrodes were monitored in real time with the lock-in amplifier and subsequently converted to scalar measurements of transendothelial impedance, of which resistance was the primary focus. TER was monitored for 30 minutes to establish a baseline resistance (R0) which, for pulmonary endothelium, was typically between 8 to 12×10^3Ω (wells with R0<7×10^3Ω were rejected). As cells adhere and spread out on the microelectrode, TER increases (maximal at confluence), whereas cell retraction, rounding, or loss of adhesion was reflected by a decrease in TER. These measurements provide a highly sensitive biophysical assay that indicates the state of cell shape and focal adhesion. Values from each microelectrode were pooled at discrete time points and plotted versus time as the mean±SE of the mean (Garcia et al., 2001).

T1 sequence (Q13009 2-1591 limits assumed): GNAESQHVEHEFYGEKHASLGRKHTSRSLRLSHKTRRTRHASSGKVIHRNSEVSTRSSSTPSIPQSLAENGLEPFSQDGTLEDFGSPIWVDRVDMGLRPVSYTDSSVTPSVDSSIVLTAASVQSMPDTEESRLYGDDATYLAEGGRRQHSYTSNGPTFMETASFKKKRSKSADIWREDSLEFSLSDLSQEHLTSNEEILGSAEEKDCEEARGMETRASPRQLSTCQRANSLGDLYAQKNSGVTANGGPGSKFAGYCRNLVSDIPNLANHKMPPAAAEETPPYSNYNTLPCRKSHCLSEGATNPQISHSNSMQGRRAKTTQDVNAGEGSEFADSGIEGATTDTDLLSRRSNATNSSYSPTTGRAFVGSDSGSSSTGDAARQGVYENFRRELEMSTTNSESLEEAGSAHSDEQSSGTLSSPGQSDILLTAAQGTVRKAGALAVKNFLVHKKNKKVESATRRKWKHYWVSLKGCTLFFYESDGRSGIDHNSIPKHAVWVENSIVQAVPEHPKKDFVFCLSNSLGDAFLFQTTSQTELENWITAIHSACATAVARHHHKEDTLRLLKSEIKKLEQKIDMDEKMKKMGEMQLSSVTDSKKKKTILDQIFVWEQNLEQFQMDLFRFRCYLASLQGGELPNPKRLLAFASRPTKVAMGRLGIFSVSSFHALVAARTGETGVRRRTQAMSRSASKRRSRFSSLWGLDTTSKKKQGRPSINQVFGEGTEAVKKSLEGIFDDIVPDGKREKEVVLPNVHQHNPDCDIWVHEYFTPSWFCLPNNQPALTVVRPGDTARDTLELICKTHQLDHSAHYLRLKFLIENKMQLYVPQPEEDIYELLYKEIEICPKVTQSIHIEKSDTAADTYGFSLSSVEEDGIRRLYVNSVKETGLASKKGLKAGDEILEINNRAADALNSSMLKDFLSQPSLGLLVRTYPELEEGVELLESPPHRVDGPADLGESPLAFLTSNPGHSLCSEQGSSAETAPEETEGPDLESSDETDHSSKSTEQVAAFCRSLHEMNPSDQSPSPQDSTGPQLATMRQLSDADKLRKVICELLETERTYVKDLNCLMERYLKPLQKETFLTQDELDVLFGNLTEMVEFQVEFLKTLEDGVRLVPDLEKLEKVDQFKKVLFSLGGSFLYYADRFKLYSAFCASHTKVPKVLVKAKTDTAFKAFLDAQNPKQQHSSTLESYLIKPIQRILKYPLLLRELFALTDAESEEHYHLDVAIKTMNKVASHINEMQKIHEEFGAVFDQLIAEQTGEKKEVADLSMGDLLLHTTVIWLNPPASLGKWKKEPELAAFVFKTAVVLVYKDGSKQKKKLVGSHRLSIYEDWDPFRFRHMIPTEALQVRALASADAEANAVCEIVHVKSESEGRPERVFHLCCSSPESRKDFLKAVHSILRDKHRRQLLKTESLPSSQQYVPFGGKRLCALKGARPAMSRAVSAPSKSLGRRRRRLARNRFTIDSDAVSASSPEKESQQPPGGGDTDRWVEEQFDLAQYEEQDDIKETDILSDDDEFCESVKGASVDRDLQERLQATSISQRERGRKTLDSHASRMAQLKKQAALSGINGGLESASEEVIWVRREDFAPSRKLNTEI
T2 sequence (Q8K0D2 24-558 limits assumed): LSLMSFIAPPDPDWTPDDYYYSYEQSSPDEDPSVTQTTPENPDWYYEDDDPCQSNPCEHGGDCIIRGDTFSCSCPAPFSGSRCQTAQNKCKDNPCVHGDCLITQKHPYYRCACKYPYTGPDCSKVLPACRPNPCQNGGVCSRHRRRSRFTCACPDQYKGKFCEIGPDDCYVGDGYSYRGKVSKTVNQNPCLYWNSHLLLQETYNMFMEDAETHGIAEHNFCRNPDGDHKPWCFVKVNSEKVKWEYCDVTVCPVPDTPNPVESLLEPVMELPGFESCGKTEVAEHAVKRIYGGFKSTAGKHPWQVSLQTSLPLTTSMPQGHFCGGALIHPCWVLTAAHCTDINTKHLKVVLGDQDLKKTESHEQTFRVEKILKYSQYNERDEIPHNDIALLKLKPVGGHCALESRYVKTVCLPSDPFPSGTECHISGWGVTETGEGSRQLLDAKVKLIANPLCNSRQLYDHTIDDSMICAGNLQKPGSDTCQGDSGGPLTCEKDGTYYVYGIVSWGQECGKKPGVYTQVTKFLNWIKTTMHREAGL

Molecule | binding result (Tiam1) | binding result [1] | effect on EC barrier changes (TER) induced by LPS, LMW-HA, HABP2 and HMW-HA (Human pulmonary EC)
dynamin 2 (other, human, UniProt P50570 1-870, looked up, Immunoprecipitated with rabbit anti-dynamin 2 antibody from solubilized CEM fractions) MGNRGMEELIPLVNKLQDAFSSIGQSCHLDLPQIAVVGGQSAGKSSVLENFVGRDFLPRGSGIVTRRPLILQLIFSKTEHAEFLHCKSKKFTDFDEVRQEIEAETDRVTGTNKGISPVPINLRVYSPHVLNLTLIDLPGITKVPVGDQPPDIEYQIKDMILQFISRESSLILAVTPANMDLANSDALKLAKEVDPQGLRTIGVITKLDLMDEGTDARDVLENKLLPLRRGYIGVVNRSQKDIEGKKDIRAALAAERKFFLSHPAYRHMADRMGTPHLQKTLNQQLTNHIRESLPALRSKLQSQLLSLEKEVEEYKNFRPDDPTRKTKALLQMVQQFGVDFEKRIEGSGDQVDTLELSGGARINRIFHERFPFELVKMEFDEKDLRREISYAIKNIHGVRTGLFTPDLAFEAIVKKQVVKLKEPCLKCVDLVIQELINTVRQCTSKLSSYPRLREETERIVTTYIREREGRTKDQILLLIDIEQSYINTNHEDFIGFANAQQRSTQLNKKRAIPNQGEILVIRRGWLTINNISLMKGGSKEYWFVLTAESLSWYKDEEEKEKKYMLPLDNLKIRDVEKGFMSNKHVFAIFNTEQRNVYKDLRQIELACDSQEDVDSWKASFLRAGVYPEKDQAENEDGAQENTFSMDPQLERQVETIRNLVDSYVAIINKSIRDLMPKTIMHLMINNTKAFIHHELLAYLYSSADQSSLMEESADQAQRRDDMLRMYHALKEALNIIGDISTSTVSTPVPPPVDDTWLQSASSHSPTPQRRPVSSIHPPGRPPAVRGPTPGPPLIPVPVGAAASFSAPPIPSRPGPQSVFANSDLFPAPPQIPSRPVRIPPGIPPGVPSRRPPAAPSRPTIIRPAEPSLLD | no binding |  | 
C1INH, murine (mouse lung) (other, UniProt P97290 23-504, looked up, Detected with anti-C1INH antibody in anti-HABP2 immunoprecipitates of mouse lung homogenates) DPEATSHSTQDPLEAQAKSRESFPERDDSWSPPEPTVLPSTWPTTSVAITITNDTMGKVANESFSQHSQPAAQLPTDSPGQPPLNSSSQPSTASDLPTQATTEPFCPEPLAQCSDSDRDSSEAKLSEALTDFSVKLYHAFSATKMAKTNMAFSPFSIASLLTQVLLGAGDSTKSNLESILSYPKDFACVHQALKGFSSKGVTSVSQIFHSPDLAIRDTYVNASQSLYGSSPRVLGPDSAANLELINTWVAENTNHKIRKLLDSLPSDTCLVLLNAVYLSAKWKITFEPKKMMAPFFYKNSMIKVPMMSSVKYPVAQFDDHTLKAKVGQLQLSHNLSFVIVVPVFPKHQLKDVEKALNPTVFKAIMKKLELSKFLPTYLTMPHIKVKSSQDMLSVMEKLEFFDFTYDLNLCGLTEDPDLQVSAMKHETVLELTESGVEAAAASAISFGRSLPIFEVQRPFLFLLWDQQHRFPVFMGRVYDPRG |  | binds | inhibited the EC barrier disrupting effects of LPS, LMW-HA and HABP2 while enhancing the barrier protective effects of HMW-HA
